B1: His-tagged AgGPPS1 truncated protein (SEQ ID NO:16) (enzyme)
chain: MFDFKEYLHSKAISVNEALERAVPLRYPEKIHEAMRYSLLAGGKRIRPILTIAACELVGGSEELAMPTACAMEMIHTMSLIHDDLPSMDNDDLRRGKLTNHKVFGEGTAVLAGDALLSFAFEHIAVSTRKTVASHRVLRVVSELGKAIGSQGVAGGQVADITSEGDPSVGLETLEWIHIHKTAVLLECAVVSGAIIGGASENEIERTGRYARCVGLLFQVVDDILDVTRSSEELGKTAGKDLVSDKATYPKLMGLEKAKEFADELLDRAKEELSCFNPAKAAPLLGLADYIALRQNLEHHHHHH
notes: N-terminally truncated (leader removed) with C-terminal His6 tag, expressed in E. coli; homodimer by gel filtration
B2: His-tagged AgGPPS2 truncated protein (SEQ ID NO:12) (enzyme)
chain: MFDFNKYMDSKAMTVNEALNKAIPLRYPQKIYESMRYSLLAGGKRVRPVLCIAACELVGGTEELAIPTACAIEMIHTMSLMHDDLPCIDNDDLRRGKPTNHKIFGEDTAVTAGNALHSYAFEHIAVSTSKTVGADRILRMVSELGRATGSEGVMGGQMVDIASEGDPSIDLQTLEWIHIHKTAMLLECSVVCGAIIGGASEIVIERARRYARCVGLLFQVVDDILDVTKSSDELGKTAGKDLISDKATYPKLMGLEKAKEFSDELLNRAKGELSCFDPVKAAPLLGLADYVAFRQNLEHHHHHH
notes: as for B1
B3: His-tagged AgGPPS3 truncated protein (SEQ ID NO:20) (enzyme)
chain: MFDFNKYMLSKAMAVTEALDKAIPHSYPQKIHESMRYSLLAGGKRVRPVLCIAACELVGGREELAMPTACAMEMIHTMSLIHDDLPCMDNDDLRRGKPTNHKVFGQDTALLAGDALHAFAFEHIVAFTSKSVGSDGILRAVTELARATGPQGIMGGQIVDIASERDAFVDLQTLEWIHIHKTAVLFECATVCGAIIGGASGDEIERIRRFARYLGLLFQVVDDILDVTKSSEDLGKTAGKDLVSDKATYPKLMGLEKAKGFSLELLNKAKEELSCFDPMKAAPLFGLADYMALRQNLEHHHHHH
notes: as for B1

Molecular target: the molecule itself
Assay: gel filtration on calibrated Superdex 200; self-association of the subunit
Protocol: Molecular weight determination and kinetic evaluation. The molecular weight of GPP synthase was determined by gel filtration chromatography on a calibrated XK 16/70 column of Superdex 200 (Amersham Biosciences) as previously described (C. Burke and R. Croteau, J. Biol. Chem. 277:3141-3149, 2002). For kinetic evaluation, the standard prenyltransferase assay was performed (C. Burke and R. Croteau, J. Biol. Chem. 277:3141-3149, 2002) but the reaction was terminated after 4 min. to ensure linearity in the rate measurements. For preparative incubations, the reaction time was extended to 8 min., and all assays contained from 0.25 to 1.0 μg of purified protein.

Binding result, binds:
B1
B2
B3

— patent US20050204417A1 (WASHINGTON STATE UNIVERSITY RESEARCH FOUNDATION, published 2005)
